Reference: publication PMC7074877 (ACS chemical neuroscience, 2018)

Assay: Transmission electron microscopy of assemblies
Type: physicochemical
Conditions: 7 μL aliquots on carbon-coated copper grids, stained with 1% uranyl acetate

For “HEWL: fibrils from hen egg white lysozyme, positive control for ThT and TEM”, the “average diameter of assemblies by TEM” value was 38 nm.
